The target of test [1] is prenisin (unmodified) (Lactococcus lactis) (UniProt P13068). Conditions: cited from earlier work.
The target of test [2] is prenisin (modified) (Lactococcus lactis) (UniProt P13068). Conditions: cited from earlier work.
Test [3] concerns the target prenisin (dehydrated) (Lactococcus lactis) (UniProt P13068). Particulars: cited from earlier work.
In test [4] the target is MadC ∆34 ∆391 (double mutant carrying both deletions, each with an inserted GAG-linker) (Clostridium sp. maddingley). Kind of test: SPR. (In general: SPR reads the build-up and loss of mass on a sensor chip optically.)
The target of test [5] is NisA leader peptide leader peptide (Lactococcus lactis) (UniProt P13068). Kind of test: ITC. Particulars: cited from earlier work.
NisA leader peptide leader peptide (Lactococcus lactis), sequence (P13068 1-23): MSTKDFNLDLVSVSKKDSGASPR
Test [6] addresses NisA precursor peptide (unmodified) (Lactococcus lactis) (UniProt P13068). Kind of test: ITC. Conditions: cited from earlier work.
For test [7], the target named is nisin precursor NisA (unmodified) (Lactococcus lactis) (UniProt P13068). The test is described as follows: ITC. Particulars: cited from earlier work.
nisin precursor NisA (unmodified) (Lactococcus lactis), sequence (P13068 24-57): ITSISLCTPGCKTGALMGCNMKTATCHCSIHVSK
In test [8] the target is maddinglicin leader peptide construct madL1, Leader 1 (−23 – −1) (Clostridium sp. maddingley). The test is described as follows: ITC; MadC (200–600 μM) in the syringe, 20 injections of 2 μl into the cell with the leader variant (20–60 μM); 25°C; 50 mM HEPES, 500 mM NaCl, pH 7.5; at least triplicate.
Test [9] addresses maddinglicin leader peptide construct madL2, Leader 2 (−23 − +5) (Clostridium sp. maddingley). Described as above.
Test [10] concerns the target maddinglicin leader peptide construct madL3, Leader 3 (−23 − +10) (Clostridium sp. maddingley). The description is as above.

NisB, sequence (P20103 whole entry): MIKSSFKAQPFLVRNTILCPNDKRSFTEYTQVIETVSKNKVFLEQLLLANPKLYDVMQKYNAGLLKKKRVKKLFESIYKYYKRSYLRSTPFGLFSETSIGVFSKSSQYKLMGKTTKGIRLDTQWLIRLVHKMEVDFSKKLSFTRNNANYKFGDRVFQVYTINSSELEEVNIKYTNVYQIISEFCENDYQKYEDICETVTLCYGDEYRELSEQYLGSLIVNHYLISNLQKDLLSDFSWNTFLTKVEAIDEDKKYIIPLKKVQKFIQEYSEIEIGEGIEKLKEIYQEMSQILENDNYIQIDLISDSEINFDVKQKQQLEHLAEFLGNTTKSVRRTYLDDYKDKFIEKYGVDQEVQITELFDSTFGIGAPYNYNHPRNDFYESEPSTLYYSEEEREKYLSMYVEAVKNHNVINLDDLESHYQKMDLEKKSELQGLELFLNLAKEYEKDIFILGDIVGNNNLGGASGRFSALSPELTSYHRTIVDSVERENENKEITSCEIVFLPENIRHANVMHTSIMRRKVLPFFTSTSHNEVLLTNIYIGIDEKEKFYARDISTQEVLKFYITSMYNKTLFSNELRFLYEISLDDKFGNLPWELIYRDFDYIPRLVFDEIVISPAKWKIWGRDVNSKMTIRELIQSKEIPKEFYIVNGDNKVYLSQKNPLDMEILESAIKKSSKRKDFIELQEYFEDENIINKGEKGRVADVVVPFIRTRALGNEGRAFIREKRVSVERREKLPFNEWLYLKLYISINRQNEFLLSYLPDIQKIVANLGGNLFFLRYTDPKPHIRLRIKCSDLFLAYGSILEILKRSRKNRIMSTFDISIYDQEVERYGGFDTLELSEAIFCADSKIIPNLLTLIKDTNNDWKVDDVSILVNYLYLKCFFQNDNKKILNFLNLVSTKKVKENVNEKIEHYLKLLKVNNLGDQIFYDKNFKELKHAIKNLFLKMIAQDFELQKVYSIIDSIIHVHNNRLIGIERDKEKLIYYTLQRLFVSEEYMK
NisC, sequence (Q03202 whole entry): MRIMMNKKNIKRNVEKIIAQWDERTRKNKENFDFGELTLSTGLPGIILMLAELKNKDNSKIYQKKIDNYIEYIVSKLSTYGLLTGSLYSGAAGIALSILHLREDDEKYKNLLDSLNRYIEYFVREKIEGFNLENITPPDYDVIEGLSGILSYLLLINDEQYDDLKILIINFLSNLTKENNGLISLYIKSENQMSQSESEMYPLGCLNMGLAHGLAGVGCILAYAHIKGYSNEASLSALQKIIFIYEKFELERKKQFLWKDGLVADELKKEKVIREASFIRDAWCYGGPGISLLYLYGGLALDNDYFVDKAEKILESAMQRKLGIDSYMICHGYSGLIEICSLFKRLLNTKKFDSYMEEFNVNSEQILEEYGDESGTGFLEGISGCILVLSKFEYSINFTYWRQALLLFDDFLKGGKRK
prenisin (unmodified) (Lactococcus lactis), sequence (P13068 24-57): as the sequence (P13068 24-57) above
prenisin (dehydrated) (Lactococcus lactis), sequence (P13068 24-57): as above
prenisin (modified) (Lactococcus lactis), sequence (P13068 24-57): as above
NisA precursor peptide (unmodified) (Lactococcus lactis), sequence (P13068 24-57): as above

Broadly, the Kd is the equilibrium constant for the complex coming apart. Regarding NisB (from UniProt P20103), the Kd was 1000 nM in test [1], 10500 nM in test [2] and 300 nM in [3].

Turning to “maddinglicin leader peptide construct madL3, Leader 3 (−23 − +10)”, in [4], the Kd was found to be 35000 nM.

As for NisC (from UniProt Q03202), the Kd in test [5] was 3800 nM; in test [6], 2400 nM; in test [7], 2000 nM.

Broadly, the stoichiometry N is a count of units in the complex or per binding partner. As for “MadC (lanthionine cyclase of Clostridium sp. maddingley), His6-tag cleaved off (enzyme)”, the figures for the dH in test [8], in test [9] and in test [10] were -8.76 kcal/mol, -6.02 kcal/mol and -7.3 kcal/mol, respectively. Further, the stoichiometry N amounted to 0.83 in test [8], 0.99 in test [9] and 0.99 in test [10].
